The values that follow are results of earlier work, collected in patent publication US20240100071A1, “COMBINATION THERAPY FOR PATIENTS HAVING ACUTE AND/OR PERSISTENT DYSPNEA” (S-Form Pharma, priority 2020, published 2024).

For this data set the following is noted: human plasma 24° C., cited from earlier work; for Average ADM recovery (N = 5): 10 ng ADM/ml; for Average loss of immune reactivity: MR-ADM/CT-ADM sandwich immune assay.

Like-named read-outs stand apart in the source and are kept apart here.

Take Human Adrenomedullin [hADM]: the “Average loss of immune reactivity” value is reported as “Average: 0.9%/h”. The “Average ADM recovery (N = 5)” value (0 h) is 100. Moreover, where the note is “2 h”, the “Average ADM recovery (N = 5)” value was 99.2 and the “Loss of immune reactivity %/h” value was 0.4 %/h. Under “4 h”, the “Average ADM recovery (N = 5)” value was 96.4 and the “Loss of immune reactivity %/h” value is 0.8 %/h. Moreover, where the note is “8 h”, the “Average ADM recovery (N = 5)” value is recorded as 88.2 and the “Loss of immune reactivity %/h” value was 1.5 %/h. The “Average loss of immune reactivity” value (listed as ADM) was 0.9 %/h.
